The target of experiment [1] is T1, Recombinant Human DLL4 (R&D Systems Cat#1506-D4/CF) (human, UniProt Q9NR61 27-529).
T1 construct: Bought recombinant protein, coated on the plate; also called delta-like protein 4; rHuman DLL4
The experiment is described as follows: ECL 96-well plate assay (MSD), 0.1 µM Fab, plate coated with 30 µg/mL DLL4.

Experiment [2] has as its target T1, Recombinant Human DLL4 (R&D Systems …). As to the kind of experiment: ECL 96-well plate assay (MSD), 0.02 µM Fab, plate coated with 15 µg/mL DLL4.
The target of experiment [3] is T2, Recombinant Human DLL4 (R&D Systems Cat#1506-D4/CF) (human, UniProt Q9NR61 27-524).
T2 construct: also called delta-like protein 4; rHuman DLL4
As to the kind of experiment: ELISA, DLL4 coated on plate, Fab at 100 nM, absorbance at 450 nm.

In experiment [4] the target is T3, rHuman EGF R/Fc Chimera, CF (R&D Systems Cat#344-ER) (human, UniProt P00533 25-645).
T3 construct: Bought recombinant protein; also called epidermal growth factor receptor; Fc part of the bought chimera not given
As to the kind of experiment: ECL multispot (MSD) binding assay, antigen spotted on plate, Fab 0.04 uM.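 Further: purified Fab incubated 1 h at 20 °C on antigen spots, detected via TAG-labelled antibody, ECL read against each well's blank, with signal-to-blank of at least 4 scored as binder.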

In experiment [5] the target is T4, rHuman P-Cadherin/Fc Chimera, CF (R&D Systems Cat#861-PC) (human, UniProt P22223 108-654).
T4 construct: Bought recombinant protein; Fc part of the bought chimera not given
The description is as above.

Experiment [6] has as its target T5, rHuman Erythropoietin R/Fc Chimera, CF (R&D Systems Cat#963-ER) (human, UniProt P19235 25-250).
T5 construct: Bought recombinant protein; also called EPO R; EPO R/Fc; Fc part of the bought chimera not given
T5 sequence (looked up): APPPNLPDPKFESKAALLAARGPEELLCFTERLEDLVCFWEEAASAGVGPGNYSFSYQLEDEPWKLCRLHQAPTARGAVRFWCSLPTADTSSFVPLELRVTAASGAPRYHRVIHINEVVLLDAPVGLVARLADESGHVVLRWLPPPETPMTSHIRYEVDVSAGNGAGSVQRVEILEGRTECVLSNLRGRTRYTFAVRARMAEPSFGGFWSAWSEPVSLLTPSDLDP
Described as above.

The target in experiment [7] is T6, Recombinant Human DLL4 (R&D Systems Cat#1506-D4/CF) (human, UniProt Q9NR61 27-524).
T6 construct: Bought recombinant protein; also called delta-like protein 4; rHuman DLL4
The description is as above.

Experiment [8] deals with T7, rHuman CD44/Fc Chimera, CF (R&D Systems Cat#3660-CD) (human, UniProt P16070 21-220).
T7 construct: Bought recombinant protein; Fc part of the bought chimera not given
Described as above.

B1: Fab VH5-51_IGHD5-18*01>3_IGHJ4*01 & V3-4_IGLJ1*01 (Fab, V domains shown)
VH: EVQLVQSGAEVKKPGESLKISCKGSGYSFTSYWIGWVRQMPGKGLEWMGIIYPGDSDTRYSPSFQGQVTISADKSISTAYLQWSSLKASDTAMYYCARRGYSYGYDYFDYWGQGTLVTVSS
VL: QTVVTQEPSFSVSPGGTVTLTCGLSSGSVSTSYYPSWYQQTPGQAPRTLIYSTNTRSSGVPDRFSGSILGNKAALTITGAQADDESDYYCVLYMGSGISYVFGTGTKVTVL
notes: Tested as Fab from E. coli; VH was cloned into Plasmid A, which supplies CH1 and His6 and Flag tags; The lambda VL was cloned into Plasmid E, which supplies lambda CL; also called wildtype; parent Hit Fab VH5-51_IGHD5-18*01_IGHJ4*01 & V3-4_IGLJ1*01
B1: the Signal/Noise was found to be 24 in experiment [1] and 15.2 in experiment [2].

B2: Fab VH5-51_IGHD5-18*01>3_IGHJ4*01 G100K/G104T G24T/S28R/G35V (H:KT TRV) & V3-4_IGLJ1*01 S96R (Fab, V domains shown)
VH: EVQLVQSGAEVKKPGESLKISCKTSGYRFTSYWIVWVRQMPGKGLEWMGIIYPGDSDTRYSPSFQGQVTISADKSISTAYLQWSSLKASDTAMYYCARRKYSYTYDYFDYWGQGTLVTVSS
VL: QTVVTQEPSFSVSPGGTVTLTCGLSSGSVSTSYYPSWYQQTPGQAPRTLIYSTNTRSSGVPDRFSGSILGNKAALTITGAQADDESDYYCVLYMGRGISYVFGTGTKVTVL
notes: Tested as Fab expressed in E. coli
Regarding B2, the “ELISA Signal-blank (100 nM Fab)” value in experiment [3] worked out at 0.499.

B3: Fab VH5-51_IGHD5-18*01>3_IGHJ4*01 G100K/G104T G24T/S28R/G35V (H:KT TRV) & V3-4_IGLJ1*01 S96E (Fab, V domains shown)
VH: EVQLVQSGAEVKKPGESLKISCKTSGYRFTSYWIVWVRQMPGKGLEWMGIIYPGDSDTRYSPSFQGQVTISADKSISTAYLQWSSLKASDTAMYYCARRKYSYTYDYFDYWGQGTLVTVSS
VL: QTVVTQEPSFSVSPGGTVTLTCGLSSGSVSTSYYPSWYQQTPGQAPRTLIYSTNTRSSGVPDRFSGSILGNKAALTITGAQADDESDYYCVLYMGEGISYVFGTGTKVTVL
notes: as for B2
On to B3, for which the “ELISA Signal-blank (100 nM Fab)” value in experiment [3] was 0.439.

B4: Fab VH5-51_IGHD5-18*01>3_IGHJ4*01 G100K/G104T G24T/S28R/G35V (H:KT TRV) & V3-4_IGLJ1*01 S96V (Fab, V domains shown)
VH: EVQLVQSGAEVKKPGESLKISCKTSGYRFTSYWIVWVRQMPGKGLEWMGIIYPGDSDTRYSPSFQGQVTISADKSISTAYLQWSSLKASDTAMYYCARRKYSYTYDYFDYWGQGTLVTVSS
VL: QTVVTQEPSFSVSPGGTVTLTCGLSSGSVSTSYYPSWYQQTPGQAPRTLIYSTNTRSSGVPDRFSGSILGNKAALTITGAQADDESDYYCVLYMGVGISYVFGTGTKVTVL
notes: as for B2
With B4, in experiment [3], the “ELISA Signal-blank (100 nM Fab)” value is 0.452.

B5: Fab VH5-51_IGHD5-18*01>3_IGHJ4*01 Y103A & V3-4_IGLJ1*01 (Fab, V domains shown)
VH: EVQLVQSGAEVKKPGESLKISCKGSGYSFTSYWIGWVRQMPGKGLEWMGIIYPGDSDTRYSPSFQGQVTISADKSISTAYLQWSSLKASDTAMYYCARRGYSAGYDYFDYWGQGTLVTVSS
VL: QTVVTQEPSFSVSPGGTVTLTCGLSSGSVSTSYYPSWYQQTPGQAPRTLIYSTNTRSSGVPDRFSGSILGNKAALTITGAQADDESDYYCVLYMGSGISYVFGTGTKVTVL
notes: Heavy chain CDR3 alanine mutant of the parent Fab; Fab format as for the parent
With B5, the Signal/Noise in experiment [1] stood at 4; in experiment [2] it was 1.5.

B6: Fab VH5-51_IGHD5-18*01>3_IGHJ4*01 Y105A & V3-4_IGLJ1*01 (Fab, V domains shown)
VH: EVQLVQSGAEVKKPGESLKISCKGSGYSFTSYWIGWVRQMPGKGLEWMGIIYPGDSDTRYSPSFQGQVTISADKSISTAYLQWSSLKASDTAMYYCARRGYSYGADYFDYWGQGTLVTVSS
VL: QTVVTQEPSFSVSPGGTVTLTCGLSSGSVSTSYYPSWYQQTPGQAPRTLIYSTNTRSSGVPDRFSGSILGNKAALTITGAQADDESDYYCVLYMGSGISYVFGTGTKVTVL
notes: as for B5
On to B6, for which the Signal/Noise in experiment [1] and in experiment [2] was 1 in each case.

B7: Fab VH5-51_IGHD5-18*01>3_IGHJ4*01 G100K/G104T G24T/S28R/G35V (H:KT TRV) & V3-4_IGLJ1*01 S96P (Fab, V domains shown)
VH: EVQLVQSGAEVKKPGESLKISCKTSGYRFTSYWIVWVRQMPGKGLEWMGIIYPGDSDTRYSPSFQGQVTISADKSISTAYLQWSSLKASDTAMYYCARRKYSYTYDYFDYWGQGTLVTVSS
VL: QTVVTQEPSFSVSPGGTVTLTCGLSSGSVSTSYYPSWYQQTPGQAPRTLIYSTNTRSSGVPDRFSGSILGNKAALTITGAQADDESDYYCVLYMGPGISYVFGTGTKVTVL
notes: as for B2
For the molecule B7, in experiment [3], the “ELISA Signal-blank (100 nM Fab)” value amounted to 0.813.

B8: Fab VH5-51_IGHD5-18*01>3_IGHJ4*01 G100K/G104T (H:KT) & V3-4_IGLJ1*01 L92A (Fab, V domains shown)
VH: EVQLVQSGAEVKKPGESLKISCKGSGYSFTSYWIGWVRQMPGKGLEWMGIIYPGDSDTRYSPSFQGQVTISADKSISTAYLQWSSLKASDTAMYYCARRKYSYTYDYFDYWGQGTLVTVSS
VL: QTVVTQEPSFSVSPGGTVTLTCGLSSGSVSTSYYPSWYQQTPGQAPRTLIYSTNTRSSGVPDRFSGSILGNKAALTITGAQADDESDYYCVAYMGSGISYVFGTGTKVTVL
notes: Fab; Expressed from Plasmid A (CH1, His6 and Flag tags) and Plasmid E (lambda CL); also called KT & L92A
As for B8, the ECL signal in experiment [4] came to 1010; in experiment [5], 326; in experiment [6], 582; in experiment [7] it was 11700.

B9: Fab VH5-51_IGHD5-18*01>3_IGHJ4*01 G100K/G104T G24T/S28R/G35V (H:KT TRV) & V3-4_IGLJ1*01 S96M (Fab, V domains shown)
VH: EVQLVQSGAEVKKPGESLKISCKTSGYRFTSYWIVWVRQMPGKGLEWMGIIYPGDSDTRYSPSFQGQVTISADKSISTAYLQWSSLKASDTAMYYCARRKYSYTYDYFDYWGQGTLVTVSS
VL: QTVVTQEPSFSVSPGGTVTLTCGLSSGSVSTSYYPSWYQQTPGQAPRTLIYSTNTRSSGVPDRFSGSILGNKAALTITGAQADDESDYYCVLYMGMGISYVFGTGTKVTVL
notes: as for B2
As to B9, the “ELISA Signal-blank (100 nM Fab)” value in experiment [3] is 0.358.

B10: Fab VH5-51_IGHD5-18*01>3_IGHJ4*01 G100A & V3-4_IGLJ1*01 (Fab, V domains shown)
VH: EVQLVQSGAEVKKPGESLKISCKGSGYSFTSYWIGWVRQMPGKGLEWMGIIYPGDSDTRYSPSFQGQVTISADKSISTAYLQWSSLKASDTAMYYCARRAYSYGYDYFDYWGQGTLVTVSS
VL: QTVVTQEPSFSVSPGGTVTLTCGLSSGSVSTSYYPSWYQQTPGQAPRTLIYSTNTRSSGVPDRFSGSILGNKAALTITGAQADDESDYYCVLYMGSGISYVFGTGTKVTVL
notes: as for B5
In the case of B10, the Signal/Noise in experiment [1] turned out to be 53.3; in experiment [2], 24.2.

B11: Fab VH5-51_IGHD5-18*01>3_IGHJ4*01 S102A & V3-4_IGLJ1*01 (Fab, V domains shown)
VH: EVQLVQSGAEVKKPGESLKISCKGSGYSFTSYWIGWVRQMPGKGLEWMGIIYPGDSDTRYSPSFQGQVTISADKSISTAYLQWSSLKASDTAMYYCARRGYAYGYDYFDYWGQGTLVTVSS
VL: QTVVTQEPSFSVSPGGTVTLTCGLSSGSVSTSYYPSWYQQTPGQAPRTLIYSTNTRSSGVPDRFSGSILGNKAALTITGAQADDESDYYCVLYMGSGISYVFGTGTKVTVL
notes: as for B5
With B11, the values for the Signal/Noise in experiment [1] and in experiment [2] were 4.7 and 1.8, respectively.

B12: Fab VH5-51_IGHD5-18*01>3_IGHJ4*01 G100K/G104T (H:KT) & V3-4_IGLJ1*01 G95A (Fab, V domains shown)
VH: EVQLVQSGAEVKKPGESLKISCKGSGYSFTSYWIGWVRQMPGKGLEWMGIIYPGDSDTRYSPSFQGQVTISADKSISTAYLQWSSLKASDTAMYYCARRKYSYTYDYFDYWGQGTLVTVSS
VL: QTVVTQEPSFSVSPGGTVTLTCGLSSGSVSTSYYPSWYQQTPGQAPRTLIYSTNTRSSGVPDRFSGSILGNKAALTITGAQADDESDYYCVLYMASGISYVFGTGTKVTVL
notes: Fab; Expressed from Plasmid A (CH1, His6 and Flag tags) and Plasmid E (lambda CL); also called KT & G95A
As for B12, the ECL signal in experiment [8] stood at 657; in experiment [5], 345; in experiment [6], 637; in experiment [7], 10400.

B13: Fab VH5-51_IGHD5-18*01>3_IGHJ4*01 G100K/G104T G24T/S28R/G35V (H:KT TRV) & V3-4_IGLJ1*01 S96L (Fab, V domains shown)
VH: EVQLVQSGAEVKKPGESLKISCKTSGYRFTSYWIVWVRQMPGKGLEWMGIIYPGDSDTRYSPSFQGQVTISADKSISTAYLQWSSLKASDTAMYYCARRKYSYTYDYFDYWGQGTLVTVSS
VL: QTVVTQEPSFSVSPGGTVTLTCGLSSGSVSTSYYPSWYQQTPGQAPRTLIYSTNTRSSGVPDRFSGSILGNKAALTITGAQADDESDYYCVLYMGLGISYVFGTGTKVTVL
notes: as for B2
With B13, the “ELISA Signal-blank (100 nM Fab)” value in experiment [3] came to 0.355.

B14: Fab VH5-51_IGHD5-18*01>3_IGHJ4*01 G104A & V3-4_IGLJ1*01 (Fab, V domains shown)
VH: EVQLVQSGAEVKKPGESLKISCKGSGYSFTSYWIGWVRQMPGKGLEWMGIIYPGDSDTRYSPSFQGQVTISADKSISTAYLQWSSLKASDTAMYYCARRGYSYAYDYFDYWGQGTLVTVSS
VL: QTVVTQEPSFSVSPGGTVTLTCGLSSGSVSTSYYPSWYQQTPGQAPRTLIYSTNTRSSGVPDRFSGSILGNKAALTITGAQADDESDYYCVLYMGSGISYVFGTGTKVTVL
notes: as for B5
With B14, the Signal/Noise came out at 41.5 in experiment [1] and 12.5 in experiment [2].

The values above are taken from patent US20120316071A1 (published 2012).
